Article PMC10927535

T1: LSH3-DBD S45-S190 (Arabidopsis thaliana, UniProt O82268 45-190)
T1 sequence: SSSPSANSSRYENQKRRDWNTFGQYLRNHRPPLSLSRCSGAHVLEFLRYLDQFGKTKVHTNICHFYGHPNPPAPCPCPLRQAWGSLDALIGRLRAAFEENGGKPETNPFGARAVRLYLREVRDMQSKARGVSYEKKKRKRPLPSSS

T2: LSH1-DBD M1-L166 (Arabidopsis thaliana, UniProt Q6NNI3 1-166)
T2 sequence: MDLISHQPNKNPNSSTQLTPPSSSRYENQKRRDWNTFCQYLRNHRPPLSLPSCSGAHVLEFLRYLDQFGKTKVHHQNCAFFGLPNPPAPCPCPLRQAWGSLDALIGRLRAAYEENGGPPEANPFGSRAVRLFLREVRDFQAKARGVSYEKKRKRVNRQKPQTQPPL

B1: LSH perfect motif 17 bp (oPR799/oPR800) (dsDNA)
DNA 1: TAGTTTACTGTTGACGT
DNA 2: ACGTCAACAGTAAACTA
B2: WT ALOG motif probe (perfect motif) (dsDNA)
DNA 1: GCGTAGTTTACTGTTGACGTAG
DNA 2: CTACGTCAACAGTAAACTACG

Key:
LSH3-DBD S45-S190 [1] = biological target: T1, LSH3-DBD S45-S190; assay: crystal structure
LSH1-DBD M1-L166 = biological target: T2, LSH1-DBD M1-L166; assay: EMSA
LSH3-DBD S45-S190 [2] = biological target: T1, LSH3-DBD S45-S190; assay: EMSA

Binder | binding result (LSH3-DBD S45-S190 [1]) | Kd (LSH1-DBD M1-L166) [nM] | Kd (LSH3-DBD S45-S190 [2]) [nM]
B1 | binds |  | 
B2 |  | < 50 | 28
